Data on one substance can be found in PMC6226536.

This assay deals with SlOFP20 (full length, expressed in N. benthamiana leaf cells) (tomato).

“SlTRM5 (full length, expressed in N. benthamiana leaf cells) (natural protein)”: the cells in which SlTRM5 stayed on the microtubules on co-expression with SlOFP20 in N. benthamiana leaf epidermal cells (% of the cells) was 71.
